Data set [1] concerns the molecule itself. In words: non-reducing gel (disulfide-linked oligomers); air-oxidized MBP-tagged LTO1 alone (Fig. 3, lane 2).
Data set [2] concerns the molecule itself. In words: non-reducing SDS-urea-PAGE (disulfide-linked oligomers); 5 uM desalted MBP-tagged lumenal segment, air-oxidized or with 2 mM diamide or H2O2 for 30 minutes at room temperature, non-reducing 8 % SDS-urea-PAGE; oxidants raise the share of dimers, and higher order oligomers appear for the wild type.

No end group written: not given here.

B1: MBP-tagged lumenal segment of Arabidopsis thaliana LTO1 (AA 251-376) (domain or fragment, UniProt Q8L540 251-376, looked up)
chain: SRSGDIELPYFRTEISSSSSPYAIALAKHLNSIGAKMYGAFWCSHCLEQKEMFGREAAKELNYVECFPDGYKKGTKILKACADAAIEGFPTWIINDKVLSGEIELAELAEMTGFSLDQANETNQLQ
With B1, the binding result in data set [1] was “binds”.

AQLIDTVHNLFIGVGVGLPSTVMECGDMIYRSTLPKSNGLTITA (domain or fragment, UniProt Q9S713 46-89, looked up, also: MBP-tagged) [MBP-tagged lumenal segment of Arabidopsis thaliana STN7 (AA 46-89), C65S]: the binding result in data set [2] is recorded as “binds”.

On to AQLIDTVHNLFIGVGVGLPCTVMESGDMIYRSTLPKSNGLTITA (domain or fragment, UniProt Q9S713 46-89, looked up, also: MBP-tagged) [MBP-tagged lumenal segment of Arabidopsis thaliana STN7 (AA 46-89), C70S], for which, in data set [2], the binding result is given as “binds”.

(Values after paper PMC11808413 (FEBS letters, 2024).)
